Assay [1] has as its target T1, firefly luciferase, thermally denatured (firefly, UniProt P08659 1-550 = luciferase).
T1 construct: firefly luciferase (Promega), used as the aggregating substrate; Denatured at 44°C for 10 min in the presence of the sHsps; The partner is the unfolded, aggregating protein, not the native enzyme; source: bought: Promega
The assay can be described thus: co-sedimentation; sHsp-substrate assemblies isolated on a glycerol gradient, incubated 45 min at room temperature with buffer or with limiting or saturating DnaK/DnaJ/GrpE, then a second 10-60% glycerol gradient; pooled top, middle and bottom fractions by Western blot with IbpA antibodies. Conditions: both partners purified.

For assay [2], the target named is T2, C-His-tagged luciferase, aggregated on the BLI sensor (firefly, UniProt P08659 1-550 = luciferase).
T2 construct: firefly luciferase with a C-terminal His tag, used only in the BLI experiments; An anchoring layer was immobilised in 6 M urea on Ni-NTA sensors; A top aggregate layer was then formed at 44°C for 10 min; also called aggregated luciferase; immobilized luciferase aggregates; source: purified (Ni-NTA agarose); not shown: His tag, C-terminal, kept
T2 sequence (P08659 whole entry): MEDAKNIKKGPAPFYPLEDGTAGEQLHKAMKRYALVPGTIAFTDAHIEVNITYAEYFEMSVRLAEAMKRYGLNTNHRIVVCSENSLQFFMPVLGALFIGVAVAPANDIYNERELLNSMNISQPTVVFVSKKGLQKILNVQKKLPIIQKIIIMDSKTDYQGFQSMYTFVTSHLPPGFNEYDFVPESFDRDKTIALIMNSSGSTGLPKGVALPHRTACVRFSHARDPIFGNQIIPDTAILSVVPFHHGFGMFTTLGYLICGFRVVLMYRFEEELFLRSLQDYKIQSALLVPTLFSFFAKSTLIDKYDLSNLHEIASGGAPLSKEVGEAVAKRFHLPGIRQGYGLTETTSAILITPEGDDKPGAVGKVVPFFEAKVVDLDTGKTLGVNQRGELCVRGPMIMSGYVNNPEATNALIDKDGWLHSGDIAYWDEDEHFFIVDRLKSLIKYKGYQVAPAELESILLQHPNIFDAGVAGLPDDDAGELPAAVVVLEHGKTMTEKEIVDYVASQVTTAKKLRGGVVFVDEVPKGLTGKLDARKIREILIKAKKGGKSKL
Briefly: BLI; aggregated C-His-tagged luciferase immobilised on Ni-NTA sensors (BLItz); 5 μM sHsps (1.66 μM IbpAEc with 3.34 μM IbpBEc for IbpABEc) heat-activated at 44°C for 5 min; room temperature, buffer D (50 mM Tris-HCl pH 7.5, 150 mM KCl, 20 mM Mg acetate, 2 mM DTT); 10 min binding, 1 h dissociation in buffer. Conditions: both partners purified.

We go through two molecules from article PMC6834283, “Duplicate divergence of two bacterial small heat shock proteins reduces the demand for Hsp70 in refolding of substrates” (PLoS Genetics, 2019).

T1 sequence (P08659 whole entry): as above

B1: IbpA from Escherichia coli (natural protein, E. coli, UniProt P0C054 1-137, looked up)
chain: MRNFDLSPLYRSAIGFDRLFNHLENNQSQSNGGYPPYNVELVDENHYRIAIAVAGFAESELEITAQDNLLVVKGAHADEQKERTYLYQGIAERNFERKFQLAENIHVRGANLVNGLLYIDLERVIPEAKKPRRIEIN
notes: small heat shock protein IbpA, E. coli; Forms large undefined oligomers; also called IbpAEc; source: purified as described previously [23]
Turning to B1, the binding result in assay [1] and in assay [2] was “binds” throughout.

B2: IbpABEc (IbpAEc and IbpBEc used together, two-sHsp system of E. coli) (complex)
chain 1: MRNFDLSPLYRSAIGFDRLFNHLENNQSQSNGGYPPYNVELVDENHYRIAIAVAGFAESELEITAQDNLLVVKGAHADEQKERTYLYQGIAERNFERKFQLAENIHVRGANLVNGLLYIDLERVIPEAKKPRRIEIN
chain 2: MRNFDLSPLMRQWIGFDKLANALQNAGESQSFPPYNIEKSDDNHYRITLALAGFRQEDLEIQLEGTRLSVKGTPEQPKEEKKWLHQGLMNQPFSLSFTLAENMEVSGATFVNGLLHIDLIRNEPEPIAAQRIAISERPALNS
notes: small heat shock protein IbpA, E. coli; as m1; small heat shock protein IbpB, E. coli; as m2; source: the two purified proteins (as described previously [23]) mixed at about 1:2
Consider B2, for which the binding result in assay [1] and in assay [2] was “binds” throughout.
